The values below come from the supplement of paper PMC9170038.

This data set has as its system MS2 coat protein. The experiment in a line: apparent KD of MS2 coat protein; designed switch direction (-1 OFF switch, 1 ON switch): -1; higher = weaker reporter binding. The gist of the method: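 Normalised cluster fluorescence was curve-fitted, and each design's median over clusters is its apparent KD. Before this, SNAP-549-labelled MS2 coat protein was titrated from 0.7 or 1.5 nM, doubling to 3 µM, over RNA switches transcribed on Illumina chips by stalled E. coli RNA polymerase. Titrations had no input, 200 uM small-molecule ligand, or an oligonucleotide input, and steps lasted 0.8–1.5 h (lowest) to 10–20 min (highest).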

[1] abbreviates: Eterna round: R95, input ligand: microRNA oligo, concentration not stated.
[2] abbreviates: Eterna round: R95, input ligand: FMN 200 uM.
The mark [3] stands for this setting: Eterna round: R95, input ligand: none.

For the sequence “GAUAGAGAGCAGGAUAUCUUGGAUAAGUAUUGUAGAGAAGGGCUCACAUGAGGAUCACCCAUGUGGUCCUAGAU [JL Dibiri mod 10] (puzzle: Exclusion 6)”, the “apparent KD of MS2 coat protein” value under setting [1] was determined as 14.8 nM.
“GAUCACUGAGGAUAUACACAGAUACAAAGUAUCUGACCGUGACAUGAGGAUCACCCAUGUAGAAGGCAGAGGUC [Omei Ex2 B1] (Eterna round: R97, puzzle: Exclusion 2)”: the “apparent KD of MS2 coat protein” value was 384 nM (input ligand: FMN 200 uM) and 47.2 nM (input ligand: none).
For “GAUCCACAUGAGGAUCACCCAUGUGAGGAUAUGAUACUAUGUACUUCGGUACAUAGUAUCAGAAGGCACGGGUC [Ex1-3: 55] (puzzle: Exclusion 1)”, the “apparent KD of MS2 coat protein” value under setting [1] came to 72.5 nM.
Turning to “GAUCCGAUUGUCAGGAUAUUCAAAACGGCGCAAAAGAAGAAGGGACAUGAGGAUCACCCAUGUAUACGCCACCA [Usisbima] (Eterna round: R97, puzzle: Brourd's mod of Exclusion 4)”, the “apparent KD of MS2 coat protein” value reads like this: (input ligand: FMN 200 uM) 36.7 nM; (input ligand: none) 332 nM.
Taken in the same sequence, the figures for “GAUCCUCGGGUUAGGAUAUCGAGGAUGUACGUCAGCGAGAAGGAACAUGAGGAUCACCCAUGUUGCUUAGCAAG [BmEX4 A.18] (Eterna round: R97, puzzle: Brourd's mod of Exclusion 4)” were 21.1 nM and 19.5 nM.
The like results for “GAUCCUUCUGUUAGGAUAUGCUUUGGGCUUCCGCAGCAGAAGGAACAUGAGGAUCACCCAUGUCAAAUACCAUC [salish99_bmex4_r4_503] (Eterna round: R97, puzzle: Brourd's mod of Exclusion 4)” were, in that order, 23.1 nM and 23.1 nM.
Consider “GAUGAGCAUGUCAGGAUAUCCACUCUAAUAAAACAGGAGAAGGGACAUGAGGAUCACCCAUGUUCUAGACAUGA [Latealedi] (puzzle: Brourd's mod of Exclusion 4)”, for which the “apparent KD of MS2 coat protein” value came to 14.5 nM under setting [2], 13.1 nM under setting [1] and 14 nM under setting [3].
Consider “GAUGAGGUAGGAUAUACGAGAAGAUAGGGUAGAUAGAGAACACAUGAGGAUCACCCAUGUAGAAGGACCAGUAG [Mat - Exclusion 2 - Mod of my Tesla design - D73] (puzzle: Exclusion 2)”, for which the “apparent KD of MS2 coat protein” value under setting [1] was determined as 25.9 nM.
Turning to “GAUGGACAUGAGGAUCACCCAUGUAAGGAUAUUGAUUGUGGCUAUAAAUAGUUACGGUCAAGAAGGUACUCGUC [-21.6, -18.6 kcal, A 31%] (Eterna round: R97, puzzle: Exclusion 1)”, the “apparent KD of MS2 coat protein” value reads like this: (input ligand: FMN 200 uM) 128 nM; (input ligand: none) 161 nM.
Consider “GAUGGAGAGCAGGAUAUCUUGGGUAAGCAUCAUAGAGAAGGGCUCACAUGAGGAUCACCCAUGUGGUCCAAGAA [Usbiridi] (Eterna round: R96, puzzle: Exclusion 6)”, for which the “apparent KD of MS2 coat protein” value (input ligand: FMN 200 uM) amounted to 57 nM; the “apparent KD of MS2 coat protein” value (input ligand: microRNA oligo, concentration not stated) was 15.1 nM; the “apparent KD of MS2 coat protein” value (input ligand: none) came to 18.3 nM.
Take “GAUGGAGAGCAGGAUAUCUUGGGUAAGCAUCAUAGAGAAGGGCUCACAUGAGGAUCACCCAUGUGGUCCAAGAA [Usbiridi] (puzzle: Exclusion 6)”: the “apparent KD of MS2 coat protein” value under setting [1] worked out at 14.1 nM.
Turning to “GAUGUGAGACAGGAUAUCCACGGGAUAGUCUGAGGAGAAGGGUCUACAUGAGGAUCACCCAUGUGCGUCCCUCA [EX6 B.8] (Eterna round: R97, puzzle: Exclusion 6)”, the “apparent KD of MS2 coat protein” value by setting is: (input ligand: FMN 200 uM) 22.4 nM; (input ligand: none) 15.5 nM.
The like results for “GAUUAACAUGAGGAUCACCCAUGUGAGGAUAUGGAAUGGCUCAUUGUCUGAUUUCCUUCUAGAAGGCACAUCUU [1986#4c] (Eterna round: R97, puzzle: Exclusion 1)” were, in that order, 72.2 nM and 63.3 nM.
Regarding “GAUUACACAAGCUUUAGGGACAUGAGGAUCACCCAUGUUCGUCUUAUUGAUCUAGGUACGCUGACGUACCUAGAUCU [JL-sv1-2.31 Brourd mod] (puzzle: Sensor v3, turn-off variant 1)”, the “apparent KD of MS2 coat protein” value is, setting by setting: under setting [2], 14.5 nM; under setting [1], 84.9 nM; under setting [3], 13.2 nM.
Turning to “GAUUAGCAAGCGAGAUCCCACAUGAGGAUCACCCAUGUGCUCGUCUUAUAAAGUACUGUGACGAAAGUCACGGUACA [Mat - Sensor, turn-off var - Eli Mod - D11] (Eterna round: R97, puzzle: Sensor, turn-off variant 1)”, the “apparent KD of MS2 coat protein” value runs as follows: (input ligand: FMN 200 uM) 17.2 nM; (input ligand: none) 14.8 nM.
With “GAUUAUGCGAGCUUUAGGGACAUGAGGAUCACCCAUGUUCGUCUUAUUAGUCUAAAUACACUGACAUACCUAAAUCU [JMF 54] (puzzle: Sensor v3, turn-off variant 1)”, the “apparent KD of MS2 coat protein” value reads like this: under setting [2], 17.3 nM; under setting [1], 15.9 nM; under setting [3], 13.6 nM.
Turning to “GAUUAUGCGAGCUUUAGGGACAUGAGGAUCACCCAUGUUCGUCUUAUUAGUCUAAGUGCACUGACAUACCUAAAUCU [JMF 83] (puzzle: Sensor v3, turn-off variant 1)”, the “apparent KD of MS2 coat protein” value is, setting by setting: under setting [2], 15.8 nM; under setting [1], 23.2 nM; under setting [3], 16.6 nM.
Taken in the same sequence, the figures for “GAUUAUGCGAGCUUUAGGGACAUGAGGAUCACCCAUGUUCGUCUUAUUAGUCUGGGUACACUAACAUACCUAAAUCU [JMF 21] (puzzle: Sensor v3, turn-off variant 1)” were 26.9 nM, 43.6 nM and 30.4 nM.
Taken in the same sequence, the figures for “GAUUAUGCGAGCUUUAGGGACAUGAGGAUCACCCAUGUUCGUCUUAUUAGUCUGGGUGCGCUAACAUACCUAAAUCU [JMF 53] (puzzle: Sensor v3, turn-off variant 1)” were 90.1 nM, 148 nM and 175 nM.
Take “GAUUAUGCGAGCUUUAGGGACAUGAGGAUCACCCAUGUUCGUCUUAUUGAUCUAGAUGCACUGACAUACCUAAAUCU [JMF 77] (puzzle: Sensor v3, turn-off variant 1)”: the “apparent KD of MS2 coat protein” value runs as follows: under setting [2], 15.1 nM; under setting [1], 18.7 nM; under setting [3], 17.2 nM.
Take “GAUUAUGCGAGCUUUAGGGACAUGAGGAUCACCCAUGUUCGUCUUAUUGAUCUAGGUACACUAACAUACCUAAAUCU [JMF 17] (puzzle: Sensor v3, turn-off variant 1)”: the “apparent KD of MS2 coat protein” value under setting [2] worked out at 19.8 nM, the “apparent KD of MS2 coat protein” value under setting [1] was determined as 38.1 nM and the “apparent KD of MS2 coat protein” value under setting [3] worked out at 23.1 nM.
Consider “GAUUAUGCGAGCUUUAGGGACAUGAGGAUCACCCAUGUUCGUCUUAUUGGUCUAGGUACACUGACAUACCUAAAUCU [JMF 68] (puzzle: Sensor v3, turn-off variant 1)”, for which the “apparent KD of MS2 coat protein” value runs as follows: under setting [2], 22.7 nM; under setting [1], 37.2 nM; under setting [3], 23 nM.
Taken in the same sequence, the figures for “GAUUAUGCGAGCUUUAGGGACAUGAGGAUCACCCAUGUUCGUCUUAUUGGUCUGAGUGCACUAACAUACCUAAAUCU [JMF 31] (puzzle: Sensor v3, turn-off variant 1)” were 23.1 nM, 37.3 nM and 22.8 nM.
For “GAUUAUGCGAGCUUUAGGGACAUGAGGAUCACCCAUGUUCGUCUUAUUGGUCUGGGUACACUAACAUACCUAAAUCU [JMF 22] (puzzle: Sensor v3, turn-off variant 1)”, the “apparent KD of MS2 coat protein” value came out at 33.4 nM under setting [2], 47.9 nM under setting [1] and 36.2 nM under setting [3].
Taken in the same sequence, the figures for “GAUUAUGCGAGCUUUAGGGACAUGAGGAUCACCCAUGUUCGUCUUGUUGAUCUAGGUACGCUAACAUACCUAAAUCU [JMF 6] (puzzle: Sensor v3, turn-off variant 1)” were 19.7 nM, 28.3 nM and 20.2 nM.
With “GAUUAUGCGAGCUUUAGGGACAUGAGGAUCACCCAUGUUCGUCUUGUUGAUCUAGGUGCGCUAACAUACCUAAAUCU [JMF 48] (puzzle: Sensor v3, turn-off variant 1)”, the “apparent KD of MS2 coat protein” value is, setting by setting: under setting [2], 23.5 nM; under setting [1], 30.5 nM; under setting [3], 23.4 nM.
Take “GAUUCGGGAGGAUAUACAUGAGGAUCACCCAUGUAUAUAUAAUAUAAUAAAUUAAAAUGUAGAAGGUUUGGGUC [-13.5, -9.6 kcal, 38% A] (Eterna round: R97, puzzle: Exclusion 3)”: the “apparent KD of MS2 coat protein” value reads like this: (input ligand: FMN 200 uM) 22.8 nM; (input ligand: none) 23.2 nM.
The like results for “GAUUCGGGAGGAUAUACAUGAGGAUCACCCAUGUGUAUAUAAUAUGUUAAGUUAUCAUGUAGAAGGUUUGGGUC [-16.5, -16.2 kcal, 30% A] (Eterna round: R97, puzzle: Exclusion 3)” were, in that order, 38 nM and 49 nM.
Taken in the same sequence, the figures for “GCAAGCUUAAUCAGUAUGAACAUGAGGAUCACCCAUGUAUAAGGUAAUACUUUUGGGCCCUUUAUUACUCGUCUUAU [JR_STOV1_Sub029] (Eterna round: R97, puzzle: Sensor, turn-off variant 1)” were 67.4 nM and 72.6 nM.
The like results for “GCAAGCUUGUCAAGAUCCCACAUGAGGAUCACCCAUGUGCAUCGUCUGAGCCCAUAGCUAGUCAUCUGCGGGUGCGU [Eternabot (Original) Solution 15] (Eterna round: R97, puzzle: Sensor, turn-off variant 1)” were, in that order, 40.3 nM and 44.7 nM.
“GCAAGCUUUUGCUCGUCUUACAUGAGGAUCACCCAUGUCGGGUGCUUGCUUGCGUCCGGCGUCUGGGCCGUGGCGGU [-31.9, -55.1 kcal, A 10%] (Eterna round: R97, puzzle: Sensor, turn-off variant 1)”: the “apparent KD of MS2 coat protein” value (input ligand: FMN 200 uM) stood at 22.2 nM and the “apparent KD of MS2 coat protein” value (input ligand: none) was found to be 21.6 nM.
